Experimental data reported in patent publication US20250002610A1 (Genmab, published 2025).

B1: IgG1-DR4-chCTB007-FEAR (antibody, V domains shown)
VH: EVQLQQSGAELVKPGASVKLSCTASGFNIKDTYMHWVKQRPEQGLEWIGRIDPANGNTKYDPKFQGKATITADTSSNTAYLQLSSLTSEDTAVYYCAYYYVSNAWFTYWGQGTLVTVSA
VL: DIQMTQSPASLSVSVGETVTITCRASENIYSNLEWYQQKQGKSPQLLVYAATNLADGVPSRFSGSGSGTQYSLKINSLQSEDFGSYYCQHFWGTWTFGGGTKLEIKR
notes: Prior art DR4 clone (US20090136503A1)
B2: BisG1-b12-FEAL/DR4-T1014A04-FEAR (bispecific antibody, human IgG1, kappa, lambda)
heavy 1: QVQLVQSGAEVKKPGASVKVSCQASGYRFSNFVIHWVRQAPGQRFEWMGWINPYNGNKEFSAKFQDRVTFTADTSANTAYMELRSLRSADTAVYYCARVGPYSWDDSPQDNYYMDVWGKGTTVIVSSASTKGPSVFPLAPSSKSTSGGTAALGCLVKDYFPEPVTVSWNSGALTSGVHTFPAVLQSSGLYSLSSVVTVPSSSLGTQTYICNVNHKPSNTKVDKRVEPKSCDKTHTCPPCPAPEFEGGPSVFLFPPKPKDTLMISRTPEVTCVVVAVSHEDPEVKFNWYVDGVEVHNAKTKPREEQYNSTYRVVSVLTVLHQDWLNGKEYKCKVSNKALPAPIEKTISKAKGQPREPQVYTLPPSREEMTKNQVSLTCLVKGFYPSDIAVEWESNGQPENNYKTTPPVLDSDGSFLLYSKLTVDKSRWQQGNVFSCSVMHEALHNHYTQKSLSLSPG
light 1: EIVLTQSPGTLSLSPGERATFSCRSSHSIRSRRVAWYQHKPGQAPRLVIHGVSNRASGISDRFSGSGSGTDFTLTITRVEPEDFALYYCQVYGASSYTFGQGTKLERKRTVAAPSVFIFPPSDEQLKSGTASVVCLLNNFYPREAKVQWKVDNALQSGNSQESVTEQDSKDSTYSLSSTLTLSKADYEKHKVYACEVTHQGLSSPVTKSFNRGEC
heavy 2: EVQLVQSGADVKRPGASVKVSCKISGDSFNAYFIHWVRQAPGQGLEWMGWFNPDSGTADSAQKFHGRVTMTRDTSSSTAFLELSRLRSDDTAVYYCVRQHRGNTFAPWGRGTMVTVSSASTKGPSVFPLAPSSKSTSGGTAALGCLVKDYFPEPVTVSWNSGALTSGVHTFPAVLQSSGLYSLSSVVTVPSSSLGTQTYICNVNHKPSNTKVDKRVEPKSCDKTHTCPPCPAPEFEGGPSVFLFPPKPKDTLMISRTPEVTCVVVAVSHEDPEVKFNWYVDGVEVHNAKTKPREEQYNSTYRVVSVLTVLHQDWLNGKEYKCKVSNKALPAPIEKTISKAKGQPREPQVYTLPPSREEMTKNQVSLTCLVKGFYPSDIAVEWESNGQPENNYKTTPPVLDSDGSFFLYSRLTVDKSRWQQGNVFSCSVMHEALHNHYTQKSLSLSPG
light 2: QSVLTQPPSASGSPGQSVTISCTGTTSDVGGYNYVSWYQQHPGKAPKLMIYGVNQRPSGVPDRFSGSKSGNTASLTVSGLQAEDEADYYCSSYAGSNNWVFGGGTKLTVLGQPKAAPSVTLFPPSSEELQANKATLVCLISDFYPGAVTVAWKADSSPVKAGVETTTPSKQSNNKYAASSYLSLTPEQWKSHRSYSCQVTHEGSTVEKTVAPTECS
notes: Fab-arm exchange of IgG1-b12-FEAL and IgG1-DR4-T1014A04-FEAR

Key:
[1] = molecular target: T1, human DR4 (Death Receptor 4), cell surface expressed on human tumor cell lines (human, UniProt O00220 24-468); test: flow cytometry, MDA-MB-231 cells, N = 1
T1 construct: also called TNFRSF10A; TRAIL-R1
T1 sequence: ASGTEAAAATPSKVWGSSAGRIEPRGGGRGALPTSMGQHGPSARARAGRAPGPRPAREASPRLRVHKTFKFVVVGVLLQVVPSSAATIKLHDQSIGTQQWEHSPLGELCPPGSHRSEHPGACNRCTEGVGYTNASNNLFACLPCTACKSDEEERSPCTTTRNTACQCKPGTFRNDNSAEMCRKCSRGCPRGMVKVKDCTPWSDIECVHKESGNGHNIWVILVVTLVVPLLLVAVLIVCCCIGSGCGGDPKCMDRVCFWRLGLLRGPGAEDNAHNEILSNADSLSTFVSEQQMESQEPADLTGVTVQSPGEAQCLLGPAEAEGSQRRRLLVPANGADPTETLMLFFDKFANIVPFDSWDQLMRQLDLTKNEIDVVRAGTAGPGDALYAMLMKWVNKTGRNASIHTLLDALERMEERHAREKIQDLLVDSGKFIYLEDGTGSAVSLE

[2] = molecular target: T1, human DR4 (Death Receptor 4), cell …; test: flow cytometry, MDA-MB-231 cells, N = 2
[3] = molecular target: T1, human DR4 (Death Receptor 4), cell …; test: flow cytometry, MDA-MB-231 cells, average ± SEM
[4] = molecular target: T1, human DR4 (Death Receptor 4), cell …; test: flow cytometry on OPM-2 cells (endogenous DR4), gMFI PE
Protocol: Immunol. […] Human lung fibroblasts and CAFs (50,000 cells/well) were seeded in 96-Well round bottom plates (Greiner Bio-one, Cat #650101). Antibody dilutions were prepared using fluorescence-activated cell sorting (FACS) buffer, consisting of phosphate buffer saline (PBS, Lonza, Cat #BE17-517Q)+1% Bovine Serum Albumin (BSA, Roche, Cat #10735086001)+0.02% Sodium Azide (Bio-World, Cat #41920044-3). Plates were centrifuged, supernatant was removed, cells were resuspended in 50 μL of human Fc Block (BD, Cat #564220, diluted 1:100 in FACS buffer) and 50 μL of viability stain TO-PRO-3 Iodide (Thermo Fisher, Cat #T3605, diluted 1: 25,000 in FACS buffer), and incubated for 15 min at 4° C. Plates were washed three times with FACS buffer. […] Antibody binding to viable cells (TO-PRO-3 negative) was analyzed by flow cytometry on a FACSCelesta™ (BD biosciences) and data were processed using FlowJo_v10.8.1 (FlowJo LLC). Geomean fluorescence intensity, gMFI, was determined and visualized using GraphPad Prism. Binding curves were analyzed using nonlinear regression analysis. […]
Binding of DR4-specific antibodies BisG1-b12-FEAL/DR4-T1014A04-FEAR, BisG1-b12-FEAL/DR4-chCTB007-FEAR, IgG1-DR4-chCTB007-FEAR and IgG1-DR4-T1014A04-FEAR to cell surface expressed human DR4 was analyzed by flow cytometry using the human cancer cell line OPM-2 (DSMZ, Cat #ACC 50), which endogenously expresses DR4.

[5] = molecular target: T1, human DR4 (Death Receptor 4), cell …; test: flow cytometry, MDA-MB-231 cells, N = 1; MDA-MB-231 cells, up to 90 µg/mL, N = 1
[6] = molecular target: T1, human DR4 (Death Receptor 4), cell …; test: flow cytometry, MDA-MB-231 cells, N = 2; MDA-MB-231 cells, up to 90 µg/mL, N = 2
[7] = molecular target: T1, human DR4 (Death Receptor 4), cell …; test: flow cytometry, MDA-MB-231 cells, average ± SEM; MDA-MB-231 cells, up to 90 µg/mL, average of N = 2

Binder	EC50 [1]	Max MFI (at 90 µg/mL) [1]	EC50 [2]	Max MFI (at 90 µg/mL) [2]	EC50 [3]	Max MFI (at 90 µg/mL) [3]	EC50 (read off the curve) [4]	EC50 [5]	EC50 [6]	EC50 [7]
B1	0.04 mg/L	3750 MFI	0.08 mg/L	3480 MFI	0.06 mg/L	3620 MFI	~0.05 mg/L	–	–	–
B2	–	–	–	–	–	–	–	4.33 mg/L	6.36 mg/L	5.35 mg/L
